Measurements: publication PMC11897886 (Nucleic Acids Research, 2024)

T1: CBP-Upf1-CH-HD (S. cerevisiae, UniProt P30771 54-851)
T1 sequence: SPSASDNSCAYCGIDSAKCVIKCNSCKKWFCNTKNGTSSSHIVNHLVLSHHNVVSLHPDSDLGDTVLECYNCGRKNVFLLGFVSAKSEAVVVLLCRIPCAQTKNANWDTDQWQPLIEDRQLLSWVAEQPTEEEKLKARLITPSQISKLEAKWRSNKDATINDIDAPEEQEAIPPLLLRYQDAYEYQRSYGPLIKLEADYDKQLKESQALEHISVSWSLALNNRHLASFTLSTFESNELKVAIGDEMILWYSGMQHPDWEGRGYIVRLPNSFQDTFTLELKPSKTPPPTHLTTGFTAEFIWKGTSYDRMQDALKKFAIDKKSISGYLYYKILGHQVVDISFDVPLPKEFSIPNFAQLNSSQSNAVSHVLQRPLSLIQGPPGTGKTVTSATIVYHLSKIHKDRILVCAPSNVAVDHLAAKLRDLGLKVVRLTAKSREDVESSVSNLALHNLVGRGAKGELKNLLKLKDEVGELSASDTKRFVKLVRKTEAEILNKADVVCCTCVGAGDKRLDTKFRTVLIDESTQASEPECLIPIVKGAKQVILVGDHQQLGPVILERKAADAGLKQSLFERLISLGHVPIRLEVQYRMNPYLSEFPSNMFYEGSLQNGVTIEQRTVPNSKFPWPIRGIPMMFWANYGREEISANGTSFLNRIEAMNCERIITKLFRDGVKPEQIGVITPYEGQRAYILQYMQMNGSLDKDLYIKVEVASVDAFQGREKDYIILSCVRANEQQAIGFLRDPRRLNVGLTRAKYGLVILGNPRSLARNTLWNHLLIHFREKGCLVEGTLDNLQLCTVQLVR

T2: CBP-Upf1-FL (S.c. Upf1 full-length) (S. cerevisiae, UniProt P30771 1-971)
T2 sequence: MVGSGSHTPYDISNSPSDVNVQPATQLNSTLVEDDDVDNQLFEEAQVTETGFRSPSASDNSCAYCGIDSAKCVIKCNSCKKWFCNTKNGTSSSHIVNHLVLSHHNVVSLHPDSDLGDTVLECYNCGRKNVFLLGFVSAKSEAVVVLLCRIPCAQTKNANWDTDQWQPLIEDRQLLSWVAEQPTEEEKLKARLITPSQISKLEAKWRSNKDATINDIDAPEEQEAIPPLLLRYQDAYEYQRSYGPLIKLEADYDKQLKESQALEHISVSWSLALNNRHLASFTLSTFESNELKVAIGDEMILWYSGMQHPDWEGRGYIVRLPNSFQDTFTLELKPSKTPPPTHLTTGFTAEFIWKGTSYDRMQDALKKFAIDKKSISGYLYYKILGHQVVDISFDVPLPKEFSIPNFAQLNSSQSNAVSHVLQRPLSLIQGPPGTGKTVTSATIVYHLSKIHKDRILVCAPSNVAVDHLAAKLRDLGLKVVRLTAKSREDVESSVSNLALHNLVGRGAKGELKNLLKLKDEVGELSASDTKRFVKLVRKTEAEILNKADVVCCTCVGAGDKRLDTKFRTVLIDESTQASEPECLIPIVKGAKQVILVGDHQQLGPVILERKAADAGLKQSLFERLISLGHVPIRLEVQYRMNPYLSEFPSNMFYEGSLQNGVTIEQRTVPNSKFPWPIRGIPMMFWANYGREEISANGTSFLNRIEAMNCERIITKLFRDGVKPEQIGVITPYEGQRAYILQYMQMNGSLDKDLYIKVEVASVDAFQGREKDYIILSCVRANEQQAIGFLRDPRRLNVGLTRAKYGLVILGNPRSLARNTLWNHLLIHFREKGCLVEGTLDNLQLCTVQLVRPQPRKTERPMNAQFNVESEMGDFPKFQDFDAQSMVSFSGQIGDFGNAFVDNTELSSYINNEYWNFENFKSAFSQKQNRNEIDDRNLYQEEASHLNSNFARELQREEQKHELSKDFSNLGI

T3: CBP-Upf1-HD (S. cerevisiae, UniProt P30771 221-851)
T3 sequence: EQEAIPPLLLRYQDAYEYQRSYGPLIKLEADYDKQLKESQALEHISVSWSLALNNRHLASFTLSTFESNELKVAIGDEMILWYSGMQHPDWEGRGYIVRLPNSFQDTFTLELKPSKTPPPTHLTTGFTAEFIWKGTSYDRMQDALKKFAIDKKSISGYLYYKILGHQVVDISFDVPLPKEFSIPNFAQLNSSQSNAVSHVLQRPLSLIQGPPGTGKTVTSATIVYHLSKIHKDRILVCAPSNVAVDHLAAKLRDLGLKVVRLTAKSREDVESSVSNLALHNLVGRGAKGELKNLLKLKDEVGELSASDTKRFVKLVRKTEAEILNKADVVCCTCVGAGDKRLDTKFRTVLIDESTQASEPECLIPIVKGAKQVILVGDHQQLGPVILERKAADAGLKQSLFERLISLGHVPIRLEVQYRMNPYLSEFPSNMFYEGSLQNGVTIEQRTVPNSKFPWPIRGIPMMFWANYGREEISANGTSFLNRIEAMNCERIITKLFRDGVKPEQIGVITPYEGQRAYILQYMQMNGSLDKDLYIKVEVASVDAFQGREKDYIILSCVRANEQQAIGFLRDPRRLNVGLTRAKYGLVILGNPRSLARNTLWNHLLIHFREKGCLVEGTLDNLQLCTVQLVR

T4: CBP-Upf1-HD-Ct (S. cerevisiae, UniProt P30771 221-971)
T4 sequence: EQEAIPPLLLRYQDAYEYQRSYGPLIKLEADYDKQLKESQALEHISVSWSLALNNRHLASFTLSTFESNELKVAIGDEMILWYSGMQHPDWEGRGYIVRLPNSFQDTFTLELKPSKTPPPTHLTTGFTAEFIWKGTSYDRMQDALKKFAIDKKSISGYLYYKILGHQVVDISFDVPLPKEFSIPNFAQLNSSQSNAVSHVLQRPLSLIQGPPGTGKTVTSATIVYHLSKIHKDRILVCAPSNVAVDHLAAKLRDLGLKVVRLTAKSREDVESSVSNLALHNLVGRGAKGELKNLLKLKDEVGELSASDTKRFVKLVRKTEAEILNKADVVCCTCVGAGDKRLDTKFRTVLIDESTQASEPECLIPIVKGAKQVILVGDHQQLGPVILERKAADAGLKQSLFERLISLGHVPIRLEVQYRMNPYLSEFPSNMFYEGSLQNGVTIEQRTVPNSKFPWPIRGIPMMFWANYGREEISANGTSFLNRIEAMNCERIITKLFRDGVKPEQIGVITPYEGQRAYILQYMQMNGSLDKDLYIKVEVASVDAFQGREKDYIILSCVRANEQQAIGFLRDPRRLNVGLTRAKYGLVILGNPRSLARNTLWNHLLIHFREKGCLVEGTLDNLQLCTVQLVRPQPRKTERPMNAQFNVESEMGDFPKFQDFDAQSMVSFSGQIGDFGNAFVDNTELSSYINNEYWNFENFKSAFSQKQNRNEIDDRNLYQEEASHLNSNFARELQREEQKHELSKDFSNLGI


Assays:
Test in all cases: pull-down
CBP-Upf1-CH-HD = target: T1, CBP-Upf1-CH-HD
[1] = target: T2, CBP-Upf1-FL (S.c. Upf1 full-length)
CBP-Upf1-HD = target: T3, CBP-Upf1-HD
CBP-Upf1-HD-Ct = target: T4, CBP-Upf1-HD-Ct

| Binder | binding result (CBP-Upf1-CH-HD) | binding result [1] | binding result (CBP-Upf1-HD) | binding result (CBP-Upf1-HD-Ct) |
| --- | --- | --- | --- | --- |
| GST-Dcp2-UBM (aa 434-720) (domain or fragment) GYSSSSPGQLLDILNSKKPDSNVQSSKKPKLKILQRGTDLNSIKQNNNDETAHSNSQALLDLLKKPTSSQKIHASKPDTSFLPNDSVSGIQDAEYEDFESSSDEEVETARDERNSLNVDIGVNVMPSEKDSRRSQKEKPRNDASKTNLNASAESNSVEWGPGKSSPSTQSKQNSSVGMQNKYRQEIHIGDSDAYEVFESSSDEEDGKKLEELEQTQDNSKLISQDILKENNFQDGEVPHRDMPTESNKSINETVGLSSTTNTVKKVPKVKILKRGETFASLANDKKA | binds | binds |  |  |
| GST-tagged full-length Dcp1 (aa 1-231) (natural protein) MTGAATAAENSATQLEFYRKALNFNVIGRYDPKIKQLLFHTPHASLYKWDFKKDEWNKLEYQGVLAIYLRDVSQNTNLLPVSPQEVDIFDSQNGSNNIQVNNGSDNSNRNSSGNGNSYKSNDSLTYNCGKTLSGKDIYNYGLIILNRINPDNFSMGIVPNSVVNKRKVFNAEEDTLNPLECMGVEVKDELVIIKNLKHEVYGIWIHTVSDRQNIYELIKYLLENEPKDSFA | binds | binds | binds | binds |
| VGLSSTTNTVKKVPKVKILKRGETFASLANDKKA (domain or fragment) [GST-Dcp2-UBM2 (aa 687-720)] | binds | binds |  |  |
| GST-Ebs1 (aa 1-591) (domain or fragment) MEPSNTQKEDLPTAFNGIKSQLNSILKSNQLFQDYALLNGFLAFVHSKLNAAILTSIESQCGKSFAADLDSFDQSSISSILDFSWESVHYPIFKWFQMWRNYILFEKENKKQQTKFIDFRKMNSKMLKFFKTVQNFYVNVINTVYKKYDISVLLPKRIIQDLKLSDIENTTNVGDILAVKTFNSSSPLAHLIPTLFHRCLLFLGTAYRYKTLLEEISNKYSISNFKKSLDFFRLASLVLPSAGETYSQAGAIFLQTGNLGIAVFNFVKGMMTKMPSPVSIKNFGALMVDNKSSLNRSLHTTIMNTYLQESKGPRTPAKEILEFYFLGLFGSVWSPTSWRDDTKPNQLNNGIKLRHLENALYETMSARYLNNIKTIFHNLIITIGGFHLLLKRRSDVSAKTLKDLRSNELDYLNFAFKYIAHILNDIVKESWSENPEVSEILGMVRIINCWIKANPMVLQYSQSNLEFVNALAYLINDIVKKKPSPSFSITEHIPKRTYWFEEDLMVKGLSFVNFQLSDFDDYEKILEMDHSLDRLIGNPPLCDKLSASSEMLLRLQAVVNISSQLLQNNNCGVEWSDNKSRYIFNKKIGFK |  | binds |  |  |
| HisSUMO-tagged Ebs1 (aa 1-591) (domain or fragment) MEPSNTQKEDLPTAFNGIKSQLNSILKSNQLFQDYALLNGFLAFVHSKLNAAILTSIESQCGKSFAADLDSFDQSSISSILDFSWESVHYPIFKWFQMWRNYILFEKENKKQQTKFIDFRKMNSKMLKFFKTVQNFYVNVINTVYKKYDISVLLPKRIIQDLKLSDIENTTNVGDILAVKTFNSSSPLAHLIPTLFHRCLLFLGTAYRYKTLLEEISNKYSISNFKKSLDFFRLASLVLPSAGETYSQAGAIFLQTGNLGIAVFNFVKGMMTKMPSPVSIKNFGALMVDNKSSLNRSLHTTIMNTYLQESKGPRTPAKEILEFYFLGLFGSVWSPTSWRDDTKPNQLNNGIKLRHLENALYETMSARYLNNIKTIFHNLIITIGGFHLLLKRRSDVSAKTLKDLRSNELDYLNFAFKYIAHILNDIVKESWSENPEVSEILGMVRIINCWIKANPMVLQYSQSNLEFVNALAYLINDIVKKKPSPSFSITEHIPKRTYWFEEDLMVKGLSFVNFQLSDFDDYEKILEMDHSLDRLIGNPPLCDKLSASSEMLLRLQAVVNISSQLLQNNNCGVEWSDNKSRYIFNKKIGFK |  | binds |  |  |
| GST-Dcp2-UBM1 (aa 434-508) (domain or fragment) GYSSSSPGQLLDILNSKKPDSNVQSSKKPKLKILQRGTDLNSIKQNNNDETAHSNSQALLDLLKKPTSSQKIHAS | binds | binds |  |  |
